Source: patent US20040077031A1, “Novel methionine aminopeptidase-2 and uses thereof” (priority 2002, published 2004)

How the values were obtained:
Test in all cases: Kinetic constants of MetAP2 with Mn2+ on peptide substrates (chromogenic assay)
Assay type in all cases: biochemical, human
Conditions in all cases: other: MetAP2 with 100 μM Mn2+; pH 7.4
[1] = substrate: CSCC[C@H](N)C(=O)NCC(=O)N[C@@H](CCCCN)C(=O)O
Description: (§1) A coupled-enzyme chromogenic assay was used to measure methionine aminopeptidase activity by monitoring the production of free methionine cleaved from specific peptide substrates containing methionine. […] Free methionine was oxidized with L-amino acid oxidase (AAO, Sigma Catalog No. A-9378) and horseradish peroxidase (HRP, Sigma Catalog No. P-8451). Oxidation by AAO of free methionine generates hydrogen peroxide (H2O2) which then reacts with HRP oxidizing 0-dianisidine (Sigma Catalog No. D-1954) or 10-acetyl-3,7-dihydrophenoxazine (Amplex Red, Molecular Probes). Assays were performed in 96-well microtiter plates. Enzyme preparations were diluted in assay buffer (50 mM HEPES, pH 7.4, 100 mM NaCl), and 10 μl of the enzymes were introduced into each well. A mixture (90 μl) of 0.1 mg/ml L-amino acid oxidase, 0.1 mg/ml of horseradish peroxidase, 0.1 mg/ml ortho-dianisidine, and 0.5 mM peptide substrate was added to each cell. The reactions were carried out at room temperature, and the absorbance at 450 nanometer (A450) was measured every 20 seconds over a period of twenty minutes using an automatic plate reader (Molecular Devices, Calif., USA). The rate in mOD/min, calculated for each well, was used to represent MetAP1 or MetAP2 activity. Under this assay condition, the methionine cleaved from peptide substrate by MetAP1 or MetAP2 was instantaneously oxidized to generate a final A450 readout. It was determined that 1 μM methionine generated a 2.25 mOD increase in the A450 readout.
(§2) MetAP2 using Mn^2+ as cofactor was studied to obtain kinetic constants on several peptide substrates. […] Enzyme kinetics was studied using the chromogenic assay to determine enzymatic activity as described in Example 3. […] These peptides were tested at a final concentration of 20, 40, 80, 160, 320, and 640 μM in the assay buffer (50 mM HEPES, pH 7.4, 100 mM NaCl). […] The initial rate of methionine cleavage was determined by measuring the A450 change as described above. Kinetic constants were calculated using Linewaver-Burk plots.

[2] = substrate: CSCC[C@H](N)C(=O)NCC(=O)N[C@@H](CCCCN)C(=O)N[C@H](C(=O)N[C@@H](CCCCN)C(=O)N[C@H](C(=O)O)C(C)C)C(C)C
Description: as §1, §2

[3] = substrate: CSCC[C@H](N)C(=O)NCC(=O)N[C@@H](CCCCN)C(=O)N[C@H](C(=O)O)C(C)C
Description: as §1, §2

[4] = substrate: CSCC[C@H](N)C(=O)NCC(=O)N[C@@H](CCCCN)C(=O)N[C@H](C(=O)N[C@@H](CCCCN)C(=O)O)C(C)C
Description: as §1, §2

[5] = substrate: CSCC[C@H](N)C(=O)NCC(=O)N[C@@H](CC(N)=O)C(=O)N[C@@H](C)C(=O)N[C@@H](C)C(=O)N[C@@H](C)C(=O)N[C@@H](C)C(=O)N[C@@H](CCCCN)C(=O)O
Description: as §1, §2

[6] = substrate: CSCC[C@H](N)C(=O)NCC(=O)N[C@@H](CCCCN)C(=O)N[C@H](C(=O)N[C@@H](CCCCN)C(=O)N[C@H](C(=O)NCC(=O)N[C@H](C(=O)N[C@@H](CC(N)=O)C(=O)O)C(C)C)C(C)C)C(C)C
Description: as §1, §2

[7] = substrate: CSCC[C@H](N)C(=O)NCC(=O)N[C@@H](CO)C(=O)N[C@@H](CO)C(=O)N[C@@H](CCCCN)C(=O)N[C@@H](CO)C(=O)N[C@@H](CCCCN)C(=O)N1CCC[C@H]1C(=O)O
Description: as §1, §2

[8] = substrate: CSCC[C@H](N)C(=O)NCC(=O)N[C@@H](CC(N)=O)C(=O)N[C@@H](CC(C)C)C(=O)N[C@@H](CCCCN)C(=O)N[C@@H](CO)C(=O)N[C@H](C(=O)N[C@@H](C)C(=O)O)C(C)C
Description: as §1, §2

[9] = substrate: CSCC[C@H](N)C(=O)NCC(=O)N[C@@H](CCCCN)C(=O)N[C@H](C(=O)N[C@@H](CCCCN)C(=O)N[C@H](C(=O)NCC(=O)N[C@H](C(=O)N[C@@H](CC(N)=O)C(=O)NCC(=O)O)C(C)C)C(C)C)C(C)C
Description: as §1, §2

[10] = substrate: CSCC[C@H](N)C(=O)NCC(=O)N[C@@H](C)C(=O)N[C@@H](CCC(N)=O)C(=O)N[C@@H](Cc1ccccc1)C(=O)N[C@@H](CO)C(=O)N[C@@H](CCCCN)C(=O)N[C@H](C(=O)O)[C@@H](C)O
Description: as §1, §2

[11] = substrate: CSCC[C@H](N)C(=O)N[C@@H](C)C(=O)N[C@@H](CO)C(=O)O
Description: as §1, §2

[12] = substrate: CSCC[C@H](N)C(=O)NCC(=O)N[C@@H](CCCCN)C(=O)N[C@H](C(=O)N[C@@H](CCCCN)C(=O)N[C@H](C(=O)NCC(=O)N[C@H](C(=O)N[C@@H](CC(N)=O)C(=O)NCC(=O)N[C@@H](Cc1ccccc1)C(=O)O)C(C)C)C(C)C)C(C)C
Description: as §1, §2

B1: MetAP2 (Homo sapiens) (protein)
chain: MAGVEEVAASGSHLNGDLDPDDREEGAASTAEEAAKKKRRKKKKSKGPSAAGEQEPDKESGASVDEVARQLERSALEDKERDEDDEDGDGDGDGATGKKKKKKKKKRGPKVQTDPPSVPICDLYPNGVFPKGQECEYPPTQDGRTAAWRTTSEEKKALDQASEEIWNDFREAAEAHRQVRKYVMSWIKPGMTMIEICEKLEDCSRKLIKENGLNAGLAFPTGCSLNNCAAHYTPNAGDTTVLQYDDICKIDFGTHISGRIIDCAFTVTFNPKYDTLLKAVKDATNTGIKCAGIDVRLCDVGEAIQEVMESYEVEIDGKTYQVKPIRNLNGHSIGQYRIHAGKTVPIVKGGEATRMEEGEVYAIETFGSTGKGVVHDDMECSHYMKNFDVGHVPIRLPRTKHLLNVINENFGTLAFCRRWLDRLGESKYLMALKNLCDLGIVDPYPPLCDIKGSYTAQFEHTILLRPTCKEVVSRGDDY
notes: gp67 secretion signal of vector pAcGP67B (N); made in house; host or cells: baculovirus-infected Sf9 insect cells, secreted into medium
B1 was tested, and the Km [1] was 757.6 µM, the kcat [1] was 3.32 s⁻¹ and the kcat/Km [1] was 5000 M⁻¹ s⁻¹. For the same protein, the Km [2] was 149.3 µM, the kcat [2] was 8.53 s⁻¹ and the kcat/Km [2] was 56700 M⁻¹ s⁻¹. The Km [3] was 623.7 µM, the kcat [3] was 6.7 s⁻¹ and the kcat/Km [3] was 10000 M⁻¹ s⁻¹. The Km [4] was 188.1 µM, the kcat [4] was 10.4 s⁻¹ and the kcat/Km [4] was 55000 M⁻¹ s⁻¹. For the same protein, the Km [5] was 259.9 µM, the kcat [5] was 3.78 s⁻¹ and the kcat/Km [5] was 15000 M⁻¹ s⁻¹. It also gave a Km [6] of 205.0 µM, a kcat [6] of 10.2 s⁻¹ and a kcat/Km [6] of 50000 M⁻¹ s⁻¹. The Km [7] was 233.1 µM, the kcat [7] was 3.94 s⁻¹ and the kcat/Km [7] was 16700 M⁻¹ s⁻¹. For the same protein, the Km [8] was 208.3 µM, the kcat [8] was 4.87 s⁻¹ and the kcat/Km [8] was 23300 M⁻¹ s⁻¹. For the same protein, the Km [9] was 163.6 µM, the kcat [9] was 10.2 s⁻¹ and the kcat/Km [9] was 61700 M⁻¹ s⁻¹. The Km [10] was 224.4 µM, the kcat [10] was 4.87 s⁻¹ and the kcat/Km [10] was 21700 M⁻¹ s⁻¹. For the same protein, the Km [11] was 211.5 µM, the kcat [11] was 2.54 s⁻¹ and the kcat/Km [11] was 12000 M⁻¹ s⁻¹. For the same protein, the Km [12] was 131.3 µM, the kcat [12] was 9.43 s⁻¹ and the kcat/Km [12] was 71700 M⁻¹ s⁻¹.
